Each block holds one binder with its values, some of them ahead of it.
Target: human TPO receptor (MPL) expressed on Ba/F3 cells (human) (UniProt P40238)
Assay: cell-based or functional assay

ED50, proliferation of BaF/Mpl cells (WST-8): 0.029 µM
B1: 12B5 antibody (IgG) (antibody, from another filing)
scFv: QVQLVQSGGGLVRPGGSLSLSCAVSGITLRTYGMHWVRQAPGKGLEWVAGISFDGRSEYYADSVQGRFTISRDSSKNTLYLQMNSLRAEDTAVYYCARGAHYGFDIWGQGTMVTVSSGGGGTGGGGSGGGGSDIQMTQSPSTLSASIGDRVTITCRASEGIYHWLAWYQQKPGKAPKLLIYKASSLASGAPSRFSGSGSGTDFTLTISSLQPDDFATYYCQQYSNYPLTFGGGTKLEIK

ED50, proliferation of BaF/Mpl cells (WST-8): 34.7 µM
B2: 12B5 Fab (Fab, from another filing)
scFv: B1 scFv

— patent WO2001079494A1
